Measurements published in US20250171562A1 (ALK ABELL, published 2025).

B1: D2A1(G4S)4 (bispecific antibody)
chain: DVQLQESGGGLVEAGGSLRLSCVASGRTFSGWSMGWFRQAPGKEREFVAAISWVGSWIGGTVYSNSVKGRFTISRDNARTTVYLQMNSLKPEDTAVYFCAAANSETPRIFASEYDYWGQGTQVTVSGGGGSGGGGSGGGGSGGGGSEVQLLESGGGLVQPGGSLRLSCAASGFTFGNYDMAWVRQAPGKRPEWVSSIDTGGDITHYADSVKGRFTISRDNAKNTLYLQMNSLRPEDTAVYWCATDEEYALGPNEFDYYGQGTLVTVS
B2: A1D2(G4S)4 (bispecific antibody)
chain: EVQLLESGGGLVQPGGSLRLSCAASGFTFGNYDMAWVRQAPGKRPEWVSSIDTGGDITHYADSVKGRFTISRDNAKNTLYLQMNSLRPEDTAVYWCATDEEYALGPNEFDYYGQGTLVTVSGGGGSGGGGSGGGGSGGGGSDVQLQESGGGLVEAGGSLRLSCVASGRTFSGWSMGWFRQAPGKEREFVAAISWVGSWIGGTVYSNSVKGRFTISRDNARTTVYLQMNSLKPEDTAVYFCAAANSETPRIFASEYDYWGQGTQVTVS
B3: B2A1(G4S)4 (bispecific antibody)
chain: QVQLVESGGGLVQAGGSLRLSCAVFGSTFSNNVADWYRQAPGKQRELVARISASGATREYGDSVKGRFTISRDDAKNTMYLQMNNLKPEDTAVYRCHKIEWEDLSRKDYWGQGTQVTVSGGGGSGGGGSGGGGSGGGGSEVQLLESGGGLVQPGGSLRLSCAASGFTFGNYDMAWVRQAPGKRPEWVSSIDTGGDITHYADSVKGRFTISRDNAKNTLYLQMNSLRPEDTAVYWCATDEEYALGPNEFDYYGQGTLVTVS
B4: A1A1(G4S)4 (VHH)
chain: EVQLLESGGGLVQPGGSLRLSCAASGFTFGNYDMAWVRQAPGKRPEWVSSIDTGGDITHYADSVKGRFTISRDNAKNTLYLQMNSLRPEDTAVYWCATDEEYALGPNEFDYYGQGTLVTVSGGGGSGGGGSGGGGSGGGGSEVQLLESGGGLVQPGGSLRLSCAASGFTFGNYDMAWVRQAPGKRPEWVSSIDTGGDITHYADSVKGRFTISRDNAKNTLYLQMNSLRPEDTAVYWCATDEEYALGPNEFDYYGQGTLVTVS
notes: monospecific, bivalent control of two A1 linked by (G4S)4
B5: A1B2(G4S)4 (bispecific antibody)
chain: EVQLLESGGGLVQPGGSLRLSCAASGFTFGNYDMAWVRQAPGKRPEWVSSIDTGGDITHYADSVKGRFTISRDNAKNTLYLQMNSLRPEDTAVYWCATDEEYALGPNEFDYYGQGTLVTVSGGGGSGGGGSGGGGSGGGGSQVQLVESGGGLVQAGGSLRLSCAVFGSTFSNNVADWYRQAPGKQRELVARISASGATREYGDSVKGRFTISRDDAKNTMYLQMNNLKPEDTAVYRCHKIEWEDLSRKDYWGQGTQVTVS
B6: B3A1(G4S)4 (bispecific antibody)
chain: DVQLQESGGGLVQAGGSLRLSCAASGFIFRLAGMSWVRQAPGKGFEWVSGITMDGSTTNYADSVKGRFTISRDNSKNRLYLQMNSLKPEDTAVYYCARGAKGGYNDPRGQGTQVTVSGGGGSGGGGSGGGGSGGGGSEVQLLESGGGLVQPGGSLRLSCAASGFTFGNYDMAWVRQAPGKRPEWVSSIDTGGDITHYADSVKGRFTISRDNAKNTLYLQMNSLRPEDTAVYWCATDEEYALGPNEFDYYGQGTLVTVS
B7: A1B3(G4S)4 (bispecific antibody)
chain: EVQLLESGGGLVQPGGSLRLSCAASGFTFGNYDMAWVRQAPGKRPEWVSSIDTGGDITHYADSVKGRFTISRDNAKNTLYLQMNSLRPEDTAVYWCATDEEYALGPNEFDYYGQGTLVTVSGGGGSGGGGSGGGGSGGGGSDVQLQESGGGLVQAGGSLRLSCAASGFIFRLAGMSWVRQAPGKGFEWVSGITMDGSTTNYADSVKGRFTISRDNSKNRLYLQMNSLKPEDTAVYYCARGAKGGYNDPRGQGTQVTVS

Biological target: T1, recombinant human IgE (human, UniProt P01854-1 1-428)
T1 construct: made in-house (ALK); preloaded on immobilised FcεRIα in the displacement ELISA
T1 sequence (P01854 other isoform, or with tags, fused parts or gaps): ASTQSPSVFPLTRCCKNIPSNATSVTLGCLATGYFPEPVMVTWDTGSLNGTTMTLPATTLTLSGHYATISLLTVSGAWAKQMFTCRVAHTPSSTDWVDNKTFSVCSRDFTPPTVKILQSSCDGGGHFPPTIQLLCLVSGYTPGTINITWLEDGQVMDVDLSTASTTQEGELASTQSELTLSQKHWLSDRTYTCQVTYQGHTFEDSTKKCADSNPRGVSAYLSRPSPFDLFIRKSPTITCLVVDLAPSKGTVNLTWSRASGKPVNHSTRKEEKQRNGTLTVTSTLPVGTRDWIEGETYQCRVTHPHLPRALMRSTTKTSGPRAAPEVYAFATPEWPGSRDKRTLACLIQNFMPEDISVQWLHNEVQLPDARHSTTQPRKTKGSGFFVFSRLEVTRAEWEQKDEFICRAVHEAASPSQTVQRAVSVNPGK
Assay: IgE-FcεRIα displacement ELISA
Procedure, shortened: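 sdAbs at pM–μM were incubated 1 h on preformed complexes of 13 ng/ml recombinant human IgE with avi-tag-biotinylated human FcεRIα captured on streptavidin.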

| Binder | EC50 | Max effect |
| --- | --- | --- |
| B1 | 8 nM | > 95% |
| B2 | 10 nM | > 95% |
| B3 | 30 nM | > 95% |
| B4 | 250 nM | 90% |
| B5 | 1.4 nM | > 95% |
| B6 | 0.3 nM | > 95% |
| B7 | 190 nM | 80% |
